Patent publication US20250154250A1, “CEACAM5 ADC-ANTI-PD1/PD-L1 COMBINATION THERAPY” (SANOFI, priority 2021, published 2025)

Molecular target: T1, recombinant human CEACAM5 (Homo sapiens, UniProt P06731)
T1 sequence (P06731 35-676): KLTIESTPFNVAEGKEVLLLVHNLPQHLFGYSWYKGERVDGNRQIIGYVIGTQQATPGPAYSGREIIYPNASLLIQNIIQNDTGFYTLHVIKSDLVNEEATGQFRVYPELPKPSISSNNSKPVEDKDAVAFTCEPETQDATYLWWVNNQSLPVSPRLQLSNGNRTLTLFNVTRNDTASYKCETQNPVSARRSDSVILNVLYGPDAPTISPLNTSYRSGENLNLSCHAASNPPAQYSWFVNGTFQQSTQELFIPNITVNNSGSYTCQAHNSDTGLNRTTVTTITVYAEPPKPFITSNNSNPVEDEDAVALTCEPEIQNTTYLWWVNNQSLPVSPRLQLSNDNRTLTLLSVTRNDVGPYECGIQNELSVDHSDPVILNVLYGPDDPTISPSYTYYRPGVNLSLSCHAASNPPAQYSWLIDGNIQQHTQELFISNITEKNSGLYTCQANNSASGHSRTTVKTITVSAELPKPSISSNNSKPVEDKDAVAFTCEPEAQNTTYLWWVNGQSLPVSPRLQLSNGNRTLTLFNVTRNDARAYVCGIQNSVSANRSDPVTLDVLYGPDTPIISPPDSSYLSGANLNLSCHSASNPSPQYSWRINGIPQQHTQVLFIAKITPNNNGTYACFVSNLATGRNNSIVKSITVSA
Experiment: ELISA binding to recombinant human CEACAM5
Conditions: read-out: affinity (ELISA)
Excerpt: “Affinity” is defined, in theory, by the equilibrium association between the whole antibody and the antigen. It can be experimentally assessed by a variety of known methods, such as measuring association and dissociation rates with surface plasmon resonance or measuring the EC50 (or apparent KD) in an immunochemical assay (ELISA, FACS). In these assays, the EC50 is the concentration of the antibody which induces a response halfway between the baseline and maximum after some specified exposure time on a defined concentration of antigen by ELISA (enzyme-linked immuno-sorbent assay) or cell expressing the antigen by FACS (Fluorescence Activated Cell Sorting).
Affinity for human CEACAM5 or for Macaca fascicularis CEACAM5 may be determined as the EC50 value in an ELISA using soluble recombinant CEACAM5 as capture antigen.

- EC50: ~0.02 nM
B1: naked antibody: humanized anti-CEACAM5 antibody (tusamitamab), CAS Registry No. 2349294-95-5; VH SEQ ID NO: 6, VL SEQ ID NO: 7 (antibody, V domains shown)
VH: EVQLQESGPGLVKPGGSLSLSCAASGFVFSSYDMSWVRQTPERGLEWVAYISSGGGITYAPSTVKGRFTVSRDNAKNTLYLQMNSLTSEDTAVYYCAAHYFGSSGPFAYVVGQGTLVTVSS
VL: DIQMTQSPASLSASVGDRVTITCRASENIFSYLAWYQQKPGKSPKLLVYNTRTLAEGVPSRFSGSGSGTDFSLTISSLQPEDFATYYCQHHYGTPFTFGSGTKLEI
